Results as given in paper PMC8955606 (Toxins, 2022).

T1: PA83 peptide PLYISNPNY (domain IV) (Bacillus anthracis)
T1 chain: PLYISNPNY

T2: PA83 region YTVDVKNKRTFLSPWI (domain I) (Bacillus anthracis)
T2 chain: YTVDVKNKRTFLSPWI


Tests used:
Settings in all cases: both partners purified
[1] = molecular target: Protective Antigen PA83 (83 kDa) of Bacillus anthracis (Bacillus anthracis, strain of …, UniProt P13423); assay: SPR
[2] = molecular target: T1, PA83 peptide PLYISNPNY (domain IV); assay: peptide or protein array
[3] = molecular target: T2, PA83 region YTVDVKNKRTFLSPWI (domain I); assay: peptide or protein array

Protective Antigen PA83 (83 kDa) of Bacillus anthracis, sequence (P13423 whole entry, looked up): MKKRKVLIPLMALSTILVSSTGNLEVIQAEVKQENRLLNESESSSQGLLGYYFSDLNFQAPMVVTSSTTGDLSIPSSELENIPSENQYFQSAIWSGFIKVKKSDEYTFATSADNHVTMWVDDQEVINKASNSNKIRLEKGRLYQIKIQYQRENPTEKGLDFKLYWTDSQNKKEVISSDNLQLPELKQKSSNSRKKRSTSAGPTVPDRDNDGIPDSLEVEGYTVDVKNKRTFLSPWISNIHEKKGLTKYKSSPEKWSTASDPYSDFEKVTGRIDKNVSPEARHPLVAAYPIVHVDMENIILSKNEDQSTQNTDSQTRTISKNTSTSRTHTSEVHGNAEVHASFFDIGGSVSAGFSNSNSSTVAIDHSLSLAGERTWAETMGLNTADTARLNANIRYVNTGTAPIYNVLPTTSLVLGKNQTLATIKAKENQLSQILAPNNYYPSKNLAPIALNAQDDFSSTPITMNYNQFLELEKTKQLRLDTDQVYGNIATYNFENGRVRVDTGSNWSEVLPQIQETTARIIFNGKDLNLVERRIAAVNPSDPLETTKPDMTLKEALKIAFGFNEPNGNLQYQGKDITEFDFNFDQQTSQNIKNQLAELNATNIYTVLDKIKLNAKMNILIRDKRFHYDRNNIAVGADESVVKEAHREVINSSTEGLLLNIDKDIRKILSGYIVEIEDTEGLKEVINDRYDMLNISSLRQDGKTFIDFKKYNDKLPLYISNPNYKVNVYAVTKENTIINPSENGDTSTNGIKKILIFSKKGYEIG

Row | Binder | Kd [1] | binding result [2] | binding result [3]
1 | 35PA83 6.20 G1 (antibody, V domains shown, also called mutant that combined the 10 selected mutations; source: expressed and purified by Proteogenix) VH: QVQLQESGPGLVKPSETLSLTCTVSGDSISGGYYWGWIRQSPGKGLEWIGLIYGSTADTRYNPSLKGRVTISKDTSKNQFSLKLSSVTAADTAVYYCARSGYNFWSGEYYGLDSWGQGTLVTVSS VL: AIQLTQSPSSLSAYVGDRVTITCHASQGINSWLAWYQQKPGKAPKLLIYKASSLLSGVPSRFSGSGSGTDFTLTISSLQSEDFATYYCLQYDSAPLAFGPGTKLEIK | 0.316 nM | – | –
2 | 35PA83 6.20 IgG1 (GMP batch) (antibody, V domains shown, also called IgG 35PA83 6.20; 35PA83 6.20 mAb; source: rat YB2/0-E cell line (LFB), GMP conditions) VH: QVQLQESGPGLLKPSETLSLTCAVSGDSISGGYYWSWIRQSPGKGLEWIGLIYGSTADTRYNPSLKGRVTISKDTSKNQLSLQLRSVTAADTAVYYCARSGYNFWSGEYYGLDSWGQGAVVTVSS VL: AIQLTQSPSSLSAYVGDKVTITCHASQGINSWLAWYQQKPGKAPKLLIYKASSLLSGVPSRFSGSGSGTDYTLTISSLQSEDFASYYCLQYDSAPLAFGPGTKLDIK | – | binds | binds
3 | 35PA83 6.20 (parental antibody of the super-humanization) (antibody, V domains shown, also called the parental antibody; 35PA80 6.20) VH: QVQLQESGPGLLKPSETLSLTCAVSGDSISGGYYWSWIRQSPGKGLEWIGLIYGSTADTRYNPSLKGRVTISKDTSKNQLSLQLRSVTAADTAVYYCARSGYNFWSGEYYGLDSWGQGAVVTVSS VL: AIQLTQSPSSLSAYVGDKVTITCHASQGINSWLAWYQQKPGKAPKLLIYKASSLLSGVPSRFSGSGSGTDYTLTISSLQSEDFASYYCLQYDSAPLAFGPGTKLDIK | 0.18 nM | – | –
